Measurements taken from patent publication US20230257452A1 (GTINVENT, published 2023).

B1: S1G2 scAb (scFv)
scFv: QVQLQESGPSLVKPSQTLSLTCTVSGFSLTSNSVGWVRQAPGKAPEWVAGIDTDGEEGYNPALNSRLSITRDTSKSQVSLSLSSVTSEDTAVYYCGRSYRADGLAYGYVQAIDYWGPGLLVTVSSEGKSSGASGESKVDDQAVVTQPSSVSGSLGQRVSITCSGSFIGISSVGWFQQLPGSGLRTIIVASDGRPSGVPDRFSMSKSGNTATLTISSLQAEDEADYFCGSSDRTPYTGVFGSGTRLTVLG
notes: not shown: human C kappa domain and hexa-His tag of the scAb format
B2: CB3 scAb (scFv)
scFv: QVQLQESGPSLVKPSQTLSLTCTVSGFSLSSVAVNWVRQAPGKVPEWLGGIISNGGTGYNPALKSRLSITRDTSKSQVSLALTHVTTEDTAVYYCGRGVEWEGSMDYLGPGLLVTVSSEGKSSGSGSETKVDDQSVLTQPSSVSGFLGQRVTITCSGSSSNVGAGSYVGWYQQVPGSGLRILIYGATKRASGLPDRFSGSRSGNTATLTISSLQAEDEADYYCVSYQTDFTLVFGSGTRLTVLG
notes: as for B1

Experiments:
[1] = biological target: T1, mouse tau (isoform Tau-A) (mouse, UniProt P10637 2-733); assay: sandwich ELISA on mouse brain homogenates (incl. wild type), S1D12 mAb capture
T1 construct: endogenous tau in mouse brain homogenate or plasma; also called endogenous mouse tau

[2] = biological target: T2, full length human tau protein (2N4R, isoform Tau-F, 441 amino acids) (human, UniProt P10636 1-758); assay: sandwich ELISA, S1D12 mAb capture, hT40 titrated, detection scAb, chemiluminescent
T2 construct: also called hT40; htau40
Description: (§1) Full length tau (hT40), at 1 μg/ml starting concentration was added to designated wells and double diluted across rest of the plates and left to incubate at R/T for 1 h. A series of detection scAbs with varying epitope recognition properties were added at 10 μg/ml to designated wells (FIG. 22). For colourimetric detection HRP conjugated anti-HuCk secondary antibody was used and the resulting immunoreaction was developed and absorbance at 450 nm measured as described previously. Cut-off point for a positive binding event was an absorbance value of 0.3 following background subtraction. In order to enhance the assay sensitivity, a chemiluminescent detection method was adopted where 50 μL SuperSignal ELISA Femto Substrate (Thermo Scientific) was added to each well following incubation with anti-HuCK HRP antibody and subsequent washing. The luminescence was read using Clariostar Plus microplate reader. A further modification to this protocol was done where various detection scAbs were directly conjugated with HRP and detected using chemiluminescent protocol as before.

dGAE (tau 297-391) [3] = biological target: T3, dGAE (tau 297-391) (human, UniProt P10636 614-708); assay: tau-tau immunoassay: scAb preincubated with 100 nM dGAE; blocked ligand: plate-bound dGA (1000 nM); bound dGAE detected with E2E8
T3 construct: also called dGAE95
Description: The adapted method is as follows: dGA (1000 nM) was adsorbed to a Nunc 96-well MaxiSorp plate and incubated for 1 h at 37° C. Plates were subsequently washed 3 times with PBST which was performed after each 1 h incubation. The plates were blocked with 2% (w/v) dried milk powder in PBS for 1 h at 37° C. […] The secondary antibody used was HRP-conjugated Anti-mouse IgG (1:1000 dilution, Sigma) and incubated at RT for 1 h. The plate was subsequently developed, and readings taken at absorbance 450 nm.

[4] = biological target: T2, full length human tau protein (2N4R, …); assay: sandwich ELISA, S1D12 mAb capture, hT40 titrated, detection scAb at 10 ug/ml, colourimetric
Description: as §1

[5] = biological target: T2, full length human tau protein (2N4R, …); assay: ELISA, hT40 coated, scAb titrated
dGAE aggregates = biological target: T4, dGAE aggregates (human, UniProt P10636 614-708, limits assumed); assay: sandwich ELISA, 423 mAb capture, aggregation sample titrated, scAb at 10 ug/ml as detector [cont) G-I]
T4 construct: 100 µM dGAE aggregated with DTT at 37 °C, 700 rpm, 24 h; also called aggregated dGAE
Description: (§2) Following overnight agitation, one third of each sample was kept aside as ‘total’ and the rest was spun down at 16000×g for 30 min and separated into ‘supernatant’ and ‘pellet’. The pellet was then resuspended in half the original volume for further experiments. […] All double dilutions were done in final volumes of 100 μl. This was left to incubate on lab bench for 1 h followed by the addition of test scAbs at 10 μg/ml.

dGAE (tau 297-391) [6] = biological target: T3, dGAE (tau 297-391); assay: sandwich ELISA, 423 mAb capture, dGAE titrated, scAb at 10 ug/ml as detector [cont) G-I]
Description: as §2

dGA (tau 297-390) = dGA (tau 297-390) (human, UniProt P10636 614-707); assay: ELISA
Source text: The plates were blocked with 2% MPBS and scAb samples added at desired starting concentrations and double diluted across the plate. Binding was detected using anti-Human C Kappa HRP conjugated secondary antibody and the resulting immunoreaction was developed and absorbance values measured as described above.

T2 sequence (P10636 other isoform, or with tags, fused parts or gaps limits assumed): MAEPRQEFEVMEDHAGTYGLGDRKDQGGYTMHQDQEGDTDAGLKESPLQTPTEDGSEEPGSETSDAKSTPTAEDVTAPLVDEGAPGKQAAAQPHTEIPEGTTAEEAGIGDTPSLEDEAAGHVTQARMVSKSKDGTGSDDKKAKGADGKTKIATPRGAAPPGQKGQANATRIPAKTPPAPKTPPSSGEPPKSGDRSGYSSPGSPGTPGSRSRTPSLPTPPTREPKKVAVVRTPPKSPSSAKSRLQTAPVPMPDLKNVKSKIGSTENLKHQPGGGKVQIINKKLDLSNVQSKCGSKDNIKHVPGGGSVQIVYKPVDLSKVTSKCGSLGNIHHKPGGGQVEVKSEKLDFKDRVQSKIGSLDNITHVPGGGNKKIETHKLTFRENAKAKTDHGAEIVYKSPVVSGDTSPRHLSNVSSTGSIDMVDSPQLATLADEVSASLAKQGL
T3 sequence (P10636 614-708 limits assumed): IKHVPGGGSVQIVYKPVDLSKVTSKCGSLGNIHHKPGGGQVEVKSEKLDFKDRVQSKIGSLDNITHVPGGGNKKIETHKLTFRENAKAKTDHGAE
T4 sequence (P10636 614-708 limits assumed): as above
T1 sequence (P10637 other isoform, or with tags, fused parts or gaps limits assumed): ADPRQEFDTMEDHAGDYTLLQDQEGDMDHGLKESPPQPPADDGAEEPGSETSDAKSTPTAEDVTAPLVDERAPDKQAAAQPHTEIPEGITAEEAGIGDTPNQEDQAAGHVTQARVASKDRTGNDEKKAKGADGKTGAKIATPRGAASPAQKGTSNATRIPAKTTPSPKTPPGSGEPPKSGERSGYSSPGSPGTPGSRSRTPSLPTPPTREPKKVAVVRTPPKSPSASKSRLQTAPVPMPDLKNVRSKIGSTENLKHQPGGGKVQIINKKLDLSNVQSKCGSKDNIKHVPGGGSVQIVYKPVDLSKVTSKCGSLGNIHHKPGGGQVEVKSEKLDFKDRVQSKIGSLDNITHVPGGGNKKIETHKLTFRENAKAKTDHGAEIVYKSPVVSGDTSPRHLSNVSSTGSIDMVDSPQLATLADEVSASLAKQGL
Chain of dGA (tau 297-390) (P10636 614-707 limits assumed): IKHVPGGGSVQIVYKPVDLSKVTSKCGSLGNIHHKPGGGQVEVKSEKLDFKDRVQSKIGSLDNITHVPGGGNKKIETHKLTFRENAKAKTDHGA

Binder | binding result [1] | LoD (ng/ml) chemiluminescence detection [2] [ng/mL] | B50 (dGAE (tau 297-391) [3]) [nM] | LoD (ng/ml) colourimetric detection [4] [ng/mL] | binding result [5] | binding result (dGAE aggregates) | binding result (dGAE (tau 297-391) [6]) | binding result (dGA (tau 297-390))
B1 | binds | 0.12 | 65 | 2 | – | – | – | –
B2 | – | – | – | – | binds | binds | binds | binds
